Results from patent US20230025280A1, “PH RESPONSIVE COMPOSITIONS, FORMULATIONS, AND METHODS OF IMAGING A TUMOR” (ONCONANO MEDICINE, INC, priority 2019, published 2023).
Several values for one entry are separate records, joined by “and”; a condition that tells them apart may be missing. Equal values may be shown once. Entries after “also recorded” stand apart in the source; their conditions may differ.

Experiments:
[1] = Stability of Compound 1 at long-term storage condition of −80° C.; type: physicochemical
[2] = tested on: lymph node metastases; experiment: Lymph node imaging (PEARL) versus H/E staining; type: in vivo, human
Excerpt: After lymph node dissection, lymph nodes were identified by the attending pathologist and harvested if present. After harvesting, the single lymph nodes were imaged before further processing using PEARL imaging. The images were processed using ImageJ (FiJi). The fluorescent images were reviewed by 2 separate researchers blinded for histology, whether fluorescence was present. The pathologist, blinded for fluorescence images, evaluated whether the lymph node was positive for tumor invasion or isolated tumor cells based on H/E staining.

[3] = tested on: histology-confirmed tumor and normal tissue; experiment: Postoperative tissue slice fluorescence imaging (LI-COR Pearl; MFI, CNR, TBR, ROC) correlated with histopathology; type: in vivo, human; settings: for Ex Vivo Tissue Slice CNR / Ex Vivo Tissue Slice TBR: per patient, LI-COR Pearl
Excerpt: Timing of postoperative tissue slice imaging was adapted to accommodate the differences in the SOC for specimen processing of the different tumor types. Briefly, BC specimens were sliced fresh on the day of surgery and then formalin fixed, other tumor types were sliced after formalin fixation of the whole resection specimen 1 to 3 days after surgery. Generally, the surgical specimen was serially sliced into ±0.5 cm thick tissue slices. White light photographs were made during and directly after slicing for orientation purposes. After slicing, fluorescence imaging on both sides of each tissue slice was performed in a light-tight environment (LI-COR PEARL® Trilogy system). BC slices were therefore imaged approximately 120 min after excision, other tumor types were sliced and imaged the subsequent day(s) after excision and formalin fixation.
Each BLS underwent overnight formalin fixation in 4% paraformaldehyde/phosphate buffered saline. The pathologist then macroscopically sampled parts of BLS (FFPE embedding) for further analysis according to SOC and preparation of 4 μm slices for hematoxylin and eosin (H/E) staining to delineate tumor tissue for histopathological correlation. Additional FFPE blocks could be embedded based on fluorescence imaging of the BLS additional to the SOC examination by conventional macroscopic visual inspection of the pathologist. A standardized workflow was executed in order to cross-correlate final histopathology results with recorded fluorescence images of tissue slices of interest. FFPE blocks were scanned after 7 to 14 days using the Odyssey Flatbed Scanner (LI-COR Bioscience).
After the SOC pathological procedure was performed (approximately 7-10 days for Phase 1a and 7-14 days for Phase 1b), H/E slices were reviewed and discussed with the dedicated board-certified pathologist for the respective tumor type.
A correlation between HE slices and fluorescence images (i.e., bread loaf slice or BLS) were made using Adobe Illustrator and Fiji (ImageJ). After precisely and manually drawing the region of interest (ROI) containing tumor and background based on the histopathological outcome, a CNR was calculated for each LI-COR PEARL image of a separate BLS for each patient. The median CNR was calculated based on all available BLS containing tumor.
Compound 1 fluorescence images were captured from the postoperative specimens (BLS specimens) prepared at each step of the standard pathology for the purposes of correlating Compound 1 fluorescence with histopathological finding of the tumor and the normal tissue. LI COR PEARL, a laboratory camera with capabilities to standardize imaging and fluorescence quantification, was used to compare fluorescence intensity across multiple specimens.
Intraoperative fluorescence intensity cannot be standardized and compared between patients or dose levels due to the unique presentation of each surgical environment. Multiple variables such as camera angle, camera-tissue distance, tumor location, and coverage by other tissues or fat affect the absolute value of the fluorescence signal. To enable direct comparison of MFI across patients and doses, patient tissue slices were imaged with LI-COR Pearl, the standardizable close field camera, using the standard postoperative workflow for fluorescence.

[4] = 403 lymph nodes across 4 tumor types
[5] = TOTAL of all patients, 403 lymph nodes
[6] = lymph nodes per patient, fluorescence vs H/E pathology

## PEO90-140-b-P(DBA60-150-r-ICG0-3-r-AMA0-3) [Compound 1]
[1]; 0 months
  % ICG 784 nm (% wt): 1.3%
  Appearance: Pass
  Assay RID - Polymeric Content SEC (% wt): 96.4%
  Content 784 nm (% wt): 80.9%
  Identification - SEC (RT): Pass
  Impurities Specified: ICG-like: 1.9%
  Microbial Limits Total aerobic count: <1 cfu/mg
  Microbial Limits Total yeast and mold: <1 cfu/mg
  Total Impurities: 1.9%
  Water Content: 0.48%
[1]; 3.0 mg/mL injection, the duration thus far
  Duration stable at long-term storage condition: up to 24 months
[1]; 1 month
  % ICG 784 nm (% wt): 1.4%
  Appearance: Pass
  Assay RID - Polymeric Content SEC (% wt): 98.5%
  Content 784 nm (% wt): 82.0%
  Identification - SEC (RT): Pass
  Impurities Specified: ICG-like: 1.8%
  Total Impurities: 1.8%
  Water Content: 0.33%
[1]; 6 months
  % ICG 784 nm (% wt): 1.4%
  Appearance: Pass
  Assay RID - Polymeric Content SEC (% wt): 102.3%
  Content 784 nm (% wt): 86.2%
  Identification - SEC (RT): Pass
  Impurities Specified: ICG-like: 1.7%
  Total Impurities: 1.7%
  Water Content: 0.54%
[1]; 12 months
  % ICG 784 nm (% wt): 1.3%
  Appearance: Pass
  Assay RID - Polymeric Content SEC (% wt): 90.4%
  Content 784 nm (% wt): 74.7%
  Identification - SEC (RT): Pass
  Impurities Specified: ICG-like: 1.7%
  Microbial Limits Total aerobic count: <1 cfu/mg
  Microbial Limits Total yeast and mold: <1 cfu/mg
  Total Impurities: 1.7%
  Water Content: 0.74%
[1]; 18 months
  % ICG 784 nm (% wt): 1.5%
  Appearance: Pass
  Assay RID - Polymeric Content SEC (% wt): 100.4%
  Content 784 nm (% wt): 94.7%
  Identification - SEC (RT): Pass
  Impurities Specified: ICG-like: 0.6%
  Total Impurities: 0.6%
  Water Content: 0.64%
[1]; 24 months
  % ICG 784 nm (% wt): 1.5%
  Appearance: Pass
  Assay RID - Polymeric Content SEC (% wt): 99.7%
  Content 784 nm (% wt): 98.1%
  Identification - SEC (RT): Pass
  Impurities Specified: ICG-like: 0.6%
  Microbial Limits Total aerobic count: <1 cfu/mg
  Microbial Limits Total yeast and mold: <1 cfu/mg
  Total Impurities: 0.6%
  Water Content: 0.51%
[2]; 30/(30+34)
  Overall sensitivity in lymph nodes: 0.47
[2]; 293/(46+293)
  Overall specificity in lymph nodes: 0.86
[2]; [4]
  Lymph nodes fluorescence negative / H/E negative: 293 of 339 and 293
  Lymph nodes fluorescence negative / H/E positive: 34
  Lymph nodes fluorescence negative, TOTAL: 327
  Lymph nodes fluorescence positive / H/E negative: 46
  Lymph nodes fluorescence positive / H/E positive: 30
  Lymph nodes fluorescence positive, TOTAL: 76
[2]; [5]
  False Negatives n: 34
  False Positives n: 46
  True Negatives n: 293
  True Positives n: 30
[2]; [6]
  False Negatives n: 0 (23×) and 1 (4×) and 3 and 2 and 25
  False Positives n: 0 (12×) and 3 (4×) and 1 (9×) and 4 and 2 (2×) and 6 and 11
  True Negatives n: 0 (12×) and 50 and 14 (2×) and 7 and 44 and 20 and 2 (3×) and 34 and 1 (2×) and 15 and 41 and 8 and 16 and 18 and 4
  True Positives n: 2 (2×) and 0 (22×) and 1 (4×) and 12 and 10
[3]; 0.1 mg/kg, HNSCC
  Ex Vivo Tissue Slice CNR: 3.5 and 3.2 and 0.9
  Ex Vivo Tissue Slice TBR: 4.5 (2×) and 1.9
[3]; 0.3 mg/kg, BC
  Ex Vivo Tissue Slice CNR: 7.0 and 14.1 and 3.2
  Ex Vivo Tissue Slice TBR: 4.5 and 27.0 and 4.2
[3]; 0.5 mg/kg, BC
  Ex Vivo Tissue Slice CNR: 6.4
  Ex Vivo Tissue Slice TBR: 5.0
[3]; 0.5 mg/kg, HNSCC
  Ex Vivo Tissue Slice CNR: 3.1 and 1.8
  Ex Vivo Tissue Slice TBR: 3.9 and 2.2
[3]; 0.8 mg/kg, BC
  Ex Vivo Tissue Slice CNR: 5.7 and 9.2
  Ex Vivo Tissue Slice TBR: 8.0 and 11.9
[3]; 0.8 mg/kg, HNSCC
  Ex Vivo Tissue Slice CNR: 4.8
  Ex Vivo Tissue Slice TBR: 5.9
[3]; 1.2 mg/kg, BC
  Ex Vivo Tissue Slice CNR: 3.9 and 10.5 and 7.6 and 3.4
  Ex Vivo Tissue Slice TBR: 4.8 and 14.2 and 12.0 and 4.2
[3]; 1.2 mg/kg, CRC
  Ex Vivo Tissue Slice CNR: 12.8
  Ex Vivo Tissue Slice TBR: 16.9
[3]; 1.2 mg/kg, EC
  Ex Vivo Tissue Slice CNR: 2.9 and 2.1
  Ex Vivo Tissue Slice TBR: 3.4 and 3.2
[3]; 1.2 mg/kg, HNSCC
  Ex Vivo Tissue Slice CNR: 2.4 and 1.9 (2×) and 3.5 (2×) and 2.8 and 4.4
  Ex Vivo Tissue Slice TBR: 2.9 and 2.2 and 5.4 and 3.7 and 2.5 and 6.5 and 5.2
[3]; Phase 1a, 0.1 to 1.2 mg/kg
  Patient tumor specimens with postoperative imaging feasibility: 15
[3]; all dose cohorts
  Tumor MFI compared with non-tumor tissue: significantly higher
[3]; all tissue slices (n=97 from 26 subjects), IQR 3.1
  Median tumor-to-background ratio (TBR): 4.5
[3]; all tumor types and doses
  Postoperative fluorescence of tumors: fluoresced in tissue slices from all the patients and tumor types; also recorded: all tumors irrespective of tumor type or dose were fluorescent
[3]; postoperative tissue slices, 0.1 to 1.2 mg/kg
  Tumor MFI in relation to dose: increased with dose
[3]; tissue slices, 1.2 mg per kg dose cohort, n=59
  ROC curve AUC: 0.9875
[3]; tissue slices, measurement level, P<0.0001
  ROC curve area under the curve: 0.9726
[3]; tissue slices, 1.2 mg/kg, IQR 3.0
  TBR: 4.5
